Test results reported in doi:10.1101/2022.07.21.500954 (bioRxiv, 2022).

Biological target: the molecule itself
Assay: SEC-MALS

B1: cerato-platanin-like protein 1 (Cpl1) from Ustilago maydis, tag-free recombinant protein (natural protein, UniProt A0A0D1E4Q7 22-240, looked up)
chain: AVDITFTSGKFNRRDDSTVVKQKNPEFGMNLANQYIIRKGAGLPPAKDVKETYPECKWRHYAGSFGWLDDYNVQCYLSPSYKFHAHSIAKAFKAEPSTKAGACFDTANTDQFPEGVPKYSIGVPYLYMNNLYDRRCKVRAMVKIPKTDEHEEKWVQAWVIDHNLGNWDKDGKENDAYPKDGVLIDTNMYEQFFDKNKKVPDYSKTVPVEWFFLDINTVG
  stoichiometry N: 2
